This is an account of results in US6682731.

The assay has as its target HLA-A2 molecule (MHC class I heterodimer, no peptide of the filing added) (human). Put plainly: titration of peptide in 0.174 cell lysate, HLA-A2 stabilisation, immunoprecipitation with BB7.2. The conditions noted are these: remark: other sources report otherwise.

In turn, ALSRKVAEL [peptide SEQ ID NO: 2, Ala Leu Ser Arg Lys Val Ala Glu Leu] gave a concentration at which the peptide titrated of 5 to 10 nM.
